Test [1] concerns the target T1, T. brucei canonical histone H3 (T. brucei brucei, UniProt Q4GYX7 2-133).
T1 construct: Canonical histone H3 of Trypanosoma brucei brucei, Tb927.1.2430, pET21a plasmid from the Janzen lab; also called Tb H3
Put plainly: in vitro reconstitution of histone octamers and nucleosomes (SEC, native PAGE, SDS-PAGE); purified histones combined at a 1.2:1.2:1:1 H2A:H2B:H3(V):H4(V) molar ratio, dialysed into 2 M NaCl Octamer Buffer, octamers purified on Superdex200; wrapped with Widom 601 145 bp, Widom 603 177 bp or Widom 603 193 bp DNA by salt gradient dialysis; checked by native and SDS PAGE. As to conditions: both partners purified.

In test [2] the target is T2, T. brucei canonical histone H2A (T. brucei brucei, UniProt Q57YA3 2-134).
T2 construct: Canonical histone H2A of Trypanosoma brucei brucei, Tb927.7.2820, pET21a plasmid from the Janzen lab; also called Tb H2A
T2 sequence: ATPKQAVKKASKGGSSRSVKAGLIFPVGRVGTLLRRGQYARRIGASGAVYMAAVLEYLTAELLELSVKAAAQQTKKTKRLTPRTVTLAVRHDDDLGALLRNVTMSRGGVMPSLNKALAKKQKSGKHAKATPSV
Description: cryo-EM structure; H3.V-H4.V NCP (H2A, H2B, H3.V, H4.V) wrapped with Widom 601 145 bp DNA, crosslinked with 0.05% glutaraldehyde, separated by SEC; grids in 10 mM Tris pH 8.0, 30 mM NaCl, 1 mM EDTA, 1 mM DTT; global resolution 3.2 Å. As to conditions: both partners purified.

B1: T. brucei canonical histone H4 (natural protein)
chain: not shown
notes: Canonical histone H4 of Trypanosoma brucei brucei, Tb927.5.4170, pET21a plasmid from the Janzen lab; also called Tb H4
Take B1: the binding result in test [1] is reported as “binds”.

B2: T. brucei canonical histone H2B (natural protein, T. brucei brucei)
chain: ATPKSTPAKTRKEAKKTRRQRKRTWNVYVSRSLRSINSQMSMTSRTMKIVNSFVNDLFERIAAEAATIVRVNRKRTLGARELQTAVRLVLPADLAKHAMAEGTKAVSHASS
notes: Canonical histone H2B of Trypanosoma brucei brucei, Tb927.10.10480, pET21a plasmid from the Janzen lab; also called Tb H2B
For B2, in test [2], the binding result is on record as “binds”.
